Data taken from US20240309103A1 (Regeneron, published 2024).
Residue numbers refer to the chain shown, from its start.

Assays:
[1] = target: T1, mfNPR1-mFc:hANP complex (monkey; human, UniProt P01160 124-151); test: SPR, mAb captured, 37C
T1 construct: also called monkey NPR1 complexed to ANP
Protocol: (§1) Equilibrium dissociation constant (KD) for different NPR1 reagents binding to purified anti-NPR1 monoclonal antibodies (mAbs) were determined using a real-time surface plasmon resonance based Biacore 4000 biosensor. All binding studies were performed in 10 mM HEPES, 150 mM NaCl, 3 mM EDTA, and 0.05% v/v Surfactant Tween-20, pH 7.4 (HBS-ET) running buffer at 25° C. and 37° C. The Biacore CM5 sensor chip surface was first derivatized by amine coupling with either mouse anti-human Fc specific mAb (GE Healthcare, #BR100839) or goat anti-human Fcy specific polyclonal antibody (Jackson ImmunoResearch Laboratories, #BR-1008-39) to capture anti-NPR1 mAbs.

[2] = target: T2, mfNPR1-mFc (monkey); test: SPR, mAb captured, 37C
T2 construct: also called dimeric monkey NPR1
T2 chain: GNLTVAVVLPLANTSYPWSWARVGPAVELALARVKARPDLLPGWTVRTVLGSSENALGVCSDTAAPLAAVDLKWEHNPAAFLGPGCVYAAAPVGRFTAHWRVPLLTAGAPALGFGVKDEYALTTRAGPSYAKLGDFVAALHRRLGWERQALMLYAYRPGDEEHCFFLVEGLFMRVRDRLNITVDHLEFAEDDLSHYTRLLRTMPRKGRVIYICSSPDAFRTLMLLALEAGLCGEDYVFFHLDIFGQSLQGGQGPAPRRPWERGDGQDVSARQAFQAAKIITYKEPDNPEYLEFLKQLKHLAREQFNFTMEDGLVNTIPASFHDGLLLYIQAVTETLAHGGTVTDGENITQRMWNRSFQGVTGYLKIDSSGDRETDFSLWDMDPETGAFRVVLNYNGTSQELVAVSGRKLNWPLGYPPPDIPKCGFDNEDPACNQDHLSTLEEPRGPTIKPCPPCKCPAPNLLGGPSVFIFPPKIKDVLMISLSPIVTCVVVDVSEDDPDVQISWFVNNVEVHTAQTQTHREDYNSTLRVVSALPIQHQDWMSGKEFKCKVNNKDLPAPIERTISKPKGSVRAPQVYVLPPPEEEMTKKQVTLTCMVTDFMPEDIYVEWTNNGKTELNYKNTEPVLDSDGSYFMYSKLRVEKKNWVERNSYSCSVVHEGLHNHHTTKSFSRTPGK
Protocol: as §1

[3] = target: T3, hNPR1-mFc:hANP or hNPR1-hFc:hANP complex (human, UniProt P01160 124-151); test: SPR, mAb captured, 37C
T3 construct: also called human NPR1 complexed to ANP
Protocol: as §1

[4] = target: T4, hNPR1-mFc:hBNP complex (human, UniProt P16860 103-134); test: SPR, mAb captured, 37C
T4 construct: also called human NPR1 complexed to BNP
Protocol: as §1

[5] = target: T1, mfNPR1-mFc:hANP complex; test: SPR, mAb captured, 25C
Protocol: as §1

[6] = target: T2, mfNPR1-mFc; test: SPR, mAb captured, 25C
Protocol: as §1

[7] = target: T3, hNPR1-mFc:hANP or hNPR1-hFc:hANP complex; test: SPR, mAb captured, 25C
Protocol: as §1

[8] = target: T5, mfNPR1-mFc:hBNP complex (monkey; human, UniProt P16860 103-134); test: SPR, mAb captured, 25C
T5 construct: also called monkey NPR1 complexed to BNP
Protocol: as §1

[9] = target: T4, hNPR1-mFc:hBNP complex; test: SPR, mAb captured, 25C
Protocol: as §1

B1: mAb25491 (antibody, human IgG4, V domains shown)
VH: QVQLVQSGAEVMKPGASVKVSCKASGYTFTGYYIHWVRQAPGQGLEWMGWITPNSGATNYAQKFQGRVTLTRDTSISTAYMELTRLKSDDTAVYYCARGGQLEFFYYYYGMDVWGQGTTVTVSS
VL: DIQMTQSPSSLSASAGDRVTITCRASQSIDSYLNWYQQKPGKAPKLLISATSGFQSGVPSRFSGSGSGTDFTLTISSLQPEDFGTYYCQQSYTTPITFGQGTRLEIK
- 100 nM Ag Bound (RU) [1]: 148 RU
- Kd [1]: 1.49 nM
- koff [1]: 0.000106 s⁻¹
- kon [1]: 71000 M⁻¹ s⁻¹
- t½ [1]: 1.82 h
- 100 nM Ag Bound (RU) [2]: 114 RU
- Kd [2]: 3.49 nM
- koff [2]: 0.000164 s⁻¹
- kon [2]: 47000 M⁻¹ s⁻¹
- t½ [2]: 1.17 h
- 100 nM Ag Bound (RU) [3]: 96 RU
- Kd [3]: 1.95 nM
- koff [3]: 0.000111 s⁻¹
- kon [3]: 56900 M⁻¹ s⁻¹
- t½ [3]: 1.73 h
- 100 nM Ag Bound (RU) [4]: 96 RU
- Kd [4]: 2.45 nM
- koff [4]: 0.000134 s⁻¹
- kon [4]: 54700 M⁻¹ s⁻¹
- t½ [4]: 1.44 h
- 100 nM Ag Bound (RU) [5]: 111 RU
- Kd [5]: 0.757 nM
- koff [5]: 4.55e-05 s⁻¹
- kon [5]: 60100 M⁻¹ s⁻¹
- t½ [5]: 4.23 h
- 100 nM Ag Bound (RU) [6]: 81 RU
- Kd [6]: 1.4 nM
- koff [6]: 7.54e-05 s⁻¹
- kon [6]: 54000 M⁻¹ s⁻¹
- t½ [6]: 2.55 h
- 100 nM Ag Bound (RU) [7]: 71 RU
- Kd [7]: 0.794 nM
- koff [7]: 4.15e-05 s⁻¹
- kon [7]: 52200 M⁻¹ s⁻¹
- t½ [7]: 4.64 h
- 100 nM Ag Bound (RU) [8]: 110 RU
- Kd [8]: 0.632 nM
- koff [8]: 3.71e-05 s⁻¹
- kon [8]: 58600 M⁻¹ s⁻¹
- t½ [8]: 5.19 h
- 100 nM Ag Bound (RU) [9]: 72 RU
- Kd [9]: 0.908 nM
- koff [9]: 4.96e-05 s⁻¹
- kon [9]: 54600 M⁻¹ s⁻¹
- t½ [9]: 3.88 h

B2: mAb25479 (antibody, human IgG4, V domains shown)
VH: QVQLVQSGAEVKKPGASVKVSCKASGYTFTGYYIHWVRQAPGQGLEWMGWINPNSIGTNYAQKFQGRVTLTRDTSISTAYMELSSLRSDDTAVYYCARGGSSSYYYYYYGMDVWGQGTTVTVSS
VL: DIQMTQSPSSLSASVGDRVTITCRASQSIDNYLNWYQQKPGKAPKLLIYVASSLQSGVPSRFSGSGSGTDFTLTISSLQPEDFATYYCQQSYSTPLTFGGGTKVEIK
- 100 nM Ag Bound (RU) [1]: 138 RU
- Kd [1]: 4 nM
- koff [1]: 0.000219 s⁻¹
- kon [1]: 54700 M⁻¹ s⁻¹
- t½ [1]: 0.88 h
- 100 nM Ag Bound (RU) [2]: 89 RU
- Kd [2]: 28.1 nM
- koff [2]: 0.00108 s⁻¹
- kon [2]: 38200 M⁻¹ s⁻¹
- t½ [2]: 0.178 h
- 100 nM Ag Bound (RU) [3]: 84 RU
- Kd [3]: 2.7 nM
- koff [3]: 0.000134 s⁻¹
- kon [3]: 49700 M⁻¹ s⁻¹
- t½ [3]: 1.43 h
- 100 nM Ag Bound (RU) [4]: 85 RU
- Kd [4]: 3.83 nM
- koff [4]: 0.000163 s⁻¹
- kon [4]: 42700 M⁻¹ s⁻¹
- t½ [4]: 1.18 h
- 100 nM Ag Bound (RU) [5]: 86 RU
- Kd [5]: 2.44 nM
- koff [5]: 0.000103 s⁻¹
- kon [5]: 42000 M⁻¹ s⁻¹
- t½ [5]: 1.88 h
- 100 nM Ag Bound (RU) [6]: 54 RU
- Kd [6]: 16.2 nM
- koff [6]: 0.000507 s⁻¹
- kon [6]: 31200 M⁻¹ s⁻¹
- t½ [6]: 0.38 h
- 100 nM Ag Bound (RU) [7]: 49 RU
- Kd [7]: 3.53 nM
- koff [7]: 0.000109 s⁻¹
- kon [7]: 31000 M⁻¹ s⁻¹
- t½ [7]: 1.76 h
- 100 nM Ag Bound (RU) [8]: 86 RU
- Kd [8]: 2.95 nM
- koff [8]: 0.000113 s⁻¹
- kon [8]: 38100 M⁻¹ s⁻¹
- t½ [8]: 1.71 h
- 100 nM Ag Bound (RU) [9]: 50 RU
- Kd [9]: 4.21 nM
- koff [9]: 0.000123 s⁻¹
- kon [9]: 29200 M⁻¹ s⁻¹
- t½ [9]: 1.57 h

B3: mAb25497 (antibody, human IgG4, V domains shown)
VH: QVQLVQSGAEVKEPGASVKVSCKASGYTFTDYYIHWVRQAPGQGLEWMGWINLNSGGKNHAQKFQGRVTVTSDTSINTAYIELGRLRGDDTAVYYCSRGGGSHYYYYYHGMDVWGQGTTVTVSS
VL: B2 VL with V19I, Q27H, N31S, V50P, S53T, F83S, T85I
- 100 nM Ag Bound (RU) [1]: 102 RU
- Kd [1]: 2.6 nM
- koff [1]: 0.000152 s⁻¹
- kon [1]: 58400 M⁻¹ s⁻¹
- t½ [1]: 1.27 h
- 100 nM Ag Bound (RU) [2]: 79 RU
- Kd [2]: 5.2 nM
- koff [2]: 0.000221 s⁻¹
- kon [2]: 42500 M⁻¹ s⁻¹
- t½ [2]: 0.872 h
- 100 nM Ag Bound (RU) [3]: 60 RU
- Kd [3]: 2.09 nM
- koff [3]: 0.000102 s⁻¹
- kon [3]: 48500 M⁻¹ s⁻¹
- t½ [3]: 1.9 h
- 100 nM Ag Bound (RU) [4]: 59 RU
- Kd [4]: 2.35 nM
- koff [4]: 0.000116 s⁻¹
- kon [4]: 49200 M⁻¹ s⁻¹
- t½ [4]: 1.66 h
- 100 nM Ag Bound (RU) [5]: 95 RU
- Kd [5]: 0.24 nM
- koff [5]: 3.75e-05 s⁻¹
- kon [5]: 156000 M⁻¹ s⁻¹
- t½ [5]: 5.13 h
- 100 nM Ag Bound (RU) [6]: 76 RU
- Kd [6]: 0.337 nM
- koff [6]: 5.79e-05 s⁻¹
- kon [6]: 172000 M⁻¹ s⁻¹
- t½ [6]: 3.32 h
- 100 nM Ag Bound (RU) [7]: 59 RU
- Kd [7]: 0.279 nM
- koff [7]: 4.56e-05 s⁻¹
- kon [7]: 163000 M⁻¹ s⁻¹
- t½ [7]: 4.22 h
- 100 nM Ag Bound (RU) [8]: 93 RU
- Kd [8]: 0.32 nM
- koff [8]: 4.47e-05 s⁻¹
- kon [8]: 140000 M⁻¹ s⁻¹
- t½ [8]: 4.31 h
- 100 nM Ag Bound (RU) [9]: 59 RU
- Kd [9]: 0.358 nM
- koff [9]: 5.49e-05 s⁻¹
- kon [9]: 153000 M⁻¹ s⁻¹
- t½ [9]: 3.51 h
